These results are taken from the nanobody polyreactivity screen of Harvey et al. (2022).

A short description of the data set: yeast display, Sf9 membrane polyspecificity reagent, FACS + sequencing; frameworks hold sequencing errors. The method, boiled down:
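Nanobodies came from a synthetic yeast display library in Saccharomyces cerevisiae BJ5465, induced with galactose for 36–48 hours and stained for 1 hour at 4 °C with 10% biotinylated, detergent-solubilized Sf9 membrane reagent. Cells were enriched on streptavidin microbeads and then FACS-sorted, with low and high (top ~1%) gates set on anti-HA fluorescence for expression and streptavidin fluorescence for reagent binding. Each polyreactivity label reflects the gate a clone came from. Genes were amplified by colony PCR, sequenced by MiSeq 2 × 250 and filtered by CDR length.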
With “QVQLVESGGGLVQAGGSLRLICAASGTIFITNAMGWYRPAPGKERELVAAISGRGGSTYYADSVKGRFTISRDNAKNTVYLQMNSLKPEDTAVYYCNAYSYRVSGYDYWGQGTQVTVSS”, the “polyreactivity (PSR sort gate)” value is “high polyreactivity”.

“QVQLVESGGGLVQAGGSLRLICAASGYIFAYNTMGWYRQAPGKERELVAAISRSGGSTYYADSVKGRFTISRDNAKNTVYLQMNSLKPEDTAVYSCAARYAPLDFRFDYWGQGTQVTVSS”: the “polyreactivity (PSR sort gate)” value is recorded as “high polyreactivity”.

On to “QVQLVESGGGLVQAGGSLRLICAASGYTFAFYAMGWYRQAPGKEREFVASINWNGSSTYADSVKGRFTISRDNAKNTVYLQMNSLKPEDTAVYYCNADYNRNSVQFSLYDYWGQGTQVTVSS”, for which the “polyreactivity (PSR sort gate)” value is “low polyreactivity”.

Take “QVQLVESGGGLVQAGGSLRLICAASGYTFGHYVMGWYRQAPGKERELGAAISRGGGSTSYADSVKGRFTISRDNAKNTVYLQMNSLKPEDTAVYYCAKKSTYFKWSRMYWGQGTQVTVSS”: the “polyreactivity (PSR sort gate)” value is given as “high polyreactivity”.

On to “QVQLVESGGGLVQAGGSLRLICAASGYTFGYYAMGWYRQAPGKERELVAAISWRGARTNYADSVEGRFTISRDNAKNTVYLQMNSLKPEDTAVYYCAARGGYYQGRYKYGYWGQGTQVTVSS”, for which the “polyreactivity (PSR sort gate)” value was “high polyreactivity”.

For “QVQLVESGGGLVQAGGSLRLICAASGYTFPYNVMGWYRQAQGKERELVAAITSSGGSTYYADSVKGRFTISRDNAKTTVYLQMNSLKPEDTAVYYCNASPSSSLFDYLGQGTQVTVSS”, the “polyreactivity (PSR sort gate)” value is on record as “low polyreactivity”.

Consider “QVQLVESGGGLVQAGGSLRLICAASRSNFFPYAMGWYRQAPGKERELVDTISGSTGRTYYADSVKGRFTISRDNAKNTVYLQMNSLKPQDTAVYYCATSVGYYLAPIKYDYWGQRTQVTVSS”, for which the “polyreactivity (PSR sort gate)” value was “low polyreactivity”.

As for “QVQLVESGGGLVQAGGSLRLICAASVSTFRDHAMGWYRQAPAKERDLVAAIDIDSSTYYADSVKGRFTISLDNAKNSVYLHMNSLKPEDTAVYYCNKDASGGTTTEVDYWGQGTQVTVSS”, the “polyreactivity (PSR sort gate)” value was “low polyreactivity”.

In the case of “QVQLVESGGGLVQAGGSLRLICAATGLIFPLYDMGWYRQAAGKERELVAAITLGGGGTYYADSVKGRFTISRDNAKNTVYLQMNSLKPEDTAVYYCNADYDIAAQLRTYITFDYWGQGTQVTVSS”, the “polyreactivity (PSR sort gate)” value is given as “low polyreactivity”.

As for “QVQLVESGGGLVQAGGSLRLICASSGSILRYNTMVWYRQAPGKERELVAAITYRGGSTYYADSVKGRFTISRDNAKNTVYLQMNSLKPEDTAVYYCNAARWWKTPDDYWGQGNQVTVSS”, the “polyreactivity (PSR sort gate)” value is “high polyreactivity”.

With “QVQLVESGGGLVQAGGSLRLICDASGFTFSPNAMGWYRQAPGKERELVAAIDWSGDRTYYADSVKGRFTISRDNAKNTVYLQMNSLKPEDTAVYYCNDVRRSPGDYSYYYWGQGTQVTVSS”, the “polyreactivity (PSR sort gate)” value is reported as “low polyreactivity”.

On to “QVQLVESGGGLVQAGGSLRLICDASGSTFYRYAMGWYRQAPGKERELVAAISRSGGRTYYADSVKGRFTISRDNAKNTVYLQMNSLKPEDTADYYCAADVGPKQDATHDYWGQGTQLTVSS”, for which the “polyreactivity (PSR sort gate)” value is on record as “high polyreactivity”.

In the case of “QVQLVESGGGLVQAGGSLRLICPASGRIFRYYAMGWYRQARGKERELVAGITTGGGSTYYADSVKGRFTISRDNAKNTVFLQMNSLKPEDTAVYYCAARYYTTYYCGQGTQVTVSS”, the “polyreactivity (PSR sort gate)” value is reported as “high polyreactivity”.

“QVQLVESGGGLVQAGGSLRLICVASGRIFLTYAMGWYRQAPGKERELVAAISYSGASTYYADSVKGRFTISRDNAKNTVYLQMNSLKPEDTAVYYCAKDGTQYERQDPAYGYWGQGTQVTVSS”: the “polyreactivity (PSR sort gate)” value was “high polyreactivity”.

For “QVQLVESGGGLVQAGGSLRLISAASGRTFWTNAMGWYRQAPGKEREFVAAISWRGASTFYADSVKGRFTISRDNAKNTVYLQMNSLKPEDTAVYYCAAQSRTRSFYGKYDSWGQGTQVTVSS”, the “polyreactivity (PSR sort gate)” value is recorded as “low polyreactivity”.

As to “QVQLVESGGGLVQAGGSLRLISAASGRTFYSYAMGWYRQATGKERELVASISSGGGTNYADSVKGRFTSSRDNAMNTVYLQMNSLKPEDTAVYYGAAKYWFFYPYDYWGQGTQVTVSS”, the “polyreactivity (PSR sort gate)” value was “low polyreactivity”.

Take “QVQLVESGGGLVQAGGSLRLISAASGSIFVGNAMGWYRQSPGKERELVAAISRSGGRTYYADSVKGRFTISRDNAKNTVYLQMNSLKPEDTAVYYCNAYGWEQRQMDSWGQGTQVTVSS”: the “polyreactivity (PSR sort gate)” value was “high polyreactivity”.

With “QVQLVESGGGLVQAGGSLRLNCAASGITYTQYAMGWYRQAPGKERELVAAISKRGGRTYYADSVKGRFTISRDNAKNTVYLQMNCLIPEDTAVYYCATVPYGEVDYWGQGTQVTVSS”, the “polyreactivity (PSR sort gate)” value is recorded as “high polyreactivity”.

On to “QVQLVESGGGLVQAGGSLRLNCAASGSTFARNAMGWYRQAAGKERELVAAISGSGGSTYYADSVKGRFTISRDNAKNTVYLQMNSLKPEDTAVYYCAAARRYYAYRYDYWGQGTQVTVSS”, for which the “polyreactivity (PSR sort gate)” value is listed as “high polyreactivity”.

“QVQLVESGGGLVQAGGSLRLNCAASGSTFPKYAMGWYRQAPGKERELVAAISWSGDSTYYADSVKGRFTISRDNAKNSVYLKMNRLKPEDTAFYYCAAYNFIHAGPWVYEYWGQCTQVTVSS”: the “polyreactivity (PSR sort gate)” value is given as “low polyreactivity”.

For the sequence “QVQLVESGGGLVQAGGSLRLRCAASGFIFARYAMGWYRQAPGKERELVAAITWSGDSTYYAYSVKGRFTISRDNAKYTVYLQMNSLKPEDTAVYYCYPVSGYAKYDYWGQGTQVTVSS”, the “polyreactivity (PSR sort gate)” value was “low polyreactivity”.

Regarding “QVQLVESGGGLVQAGGSLRLRCAASGFIFARYAMGWYRQAPGKERELVASITCRGTSTRYADSVKGRFTISRDNAKNTVYLEMNSLKPEDTAVYYCNAARLSYSWVPSEMDFWGQGTQVTVSS”, the “polyreactivity (PSR sort gate)” value is recorded as “high polyreactivity”.

For “QVQLVESGGGLVQAGGSLRLRCAASGFIFGPNAMGWYRQAPGKEREFDAAINWSGGTTYYADSVKGRFTISRDNAKNTVYLQMNSLKPEDTAVYYCAASLYSDVAAVATYGYYWGQGTQVTVSS”, the “polyreactivity (PSR sort gate)” value was “low polyreactivity”.

Consider “QVQLVESGGGLVQAGGSLRLRCAASGFIFNYYALGWYRQAPGKERELVAAINSGGNTYYADSVKGRFTISRDNAKNPVYIKMNTLKPEDTAVYYCNRDPESVGYDYWGQGTQVTVSS”, for which the “polyreactivity (PSR sort gate)” value was “low polyreactivity”.

For “QVQLVESGGGLVQAGGSLRLRCAASGFPFDSYAMGWYRQAPGKERELVAAITSDGSTYYADSVKGRFTISRDNAKNTVYVLMNSLKPEDTAVYYCAADGISLYATAYDYWGQGTQVSVSS”, the “polyreactivity (PSR sort gate)” value is “low polyreactivity”.

Regarding “QVQLVESGGGLVQAGGSLRLRCAASGFTFGRYAMGGYRQAPGKERELVAGITSGGSTYYADSVKGRFTISLDNAKNTVYLQMNSLKPEDTAVYYCITKVISRTSERRGNGFTRYDYWGQGTQVTVSS”, the “polyreactivity (PSR sort gate)” value was “low polyreactivity”.

Take “QVQLVESGGGLVQAGGSLRLRCAASGFTFTKNAIGWYRQAPGKERELVAAITRRGSSTYYADSVKGRFTISRDNAKNTVYIQMNSLKPEDTAVYYCNADYETISGDYWGQGTQVTVSS”: the “polyreactivity (PSR sort gate)” value is “high polyreactivity”.

In the case of “QVQLVESGGGLVQAGGSLRLRCAASGGIFGLYTMGWYRPAPGKERELVAGISKRGTRTRYADSVKGRFTISRDNAKNTVYIQMTSLKPEDTAVYYCNADYYVSKLDYWGQGTQVTVSS”, the “polyreactivity (PSR sort gate)” value is “high polyreactivity”.

Turning to “QVQLVESGGGLVQAGGSLRLRCAASGGTFSGYTMGWYRQAPGKERELVAAINWSGGRTYYADSVKGRFTISRDNAKNTVYLQMNSLKPEDTAVYYCNKYGLYYREYDYWGQGTQVTVSS”, the “polyreactivity (PSR sort gate)” value is on record as “high polyreactivity”.

Take “QVQLVESGGGLVQAGGSLRLRCAASGITFSGNAMGWYRQAPRKERELVAAITFSGGRTYYADSVKGSFTISRDNAKNTVYLQMNSLKPEDSAVYYCAAETPRGRWLGDYWGQGTQVTVSS”: the “polyreactivity (PSR sort gate)” value was “low polyreactivity”.

For “QVQLVESGGGLVQAGGSLRLRCAASGITFTINAMGWYRQAPGTEGELVATISINGGSTNYADSVKGRFTISRDNAKNTVYLQMNSLKPEDTAVYYCAADALGPFRFQFFYTTAYVYWGQGTQVTVSS”, the “polyreactivity (PSR sort gate)” value was “low polyreactivity”.

Turning to “QVQLVESGGGLVQAGGSLRLRCAASGKTFSWYALGWYRLAPGKERELVAVITSGGSTNYADSVKWRFTISRDNAKNTVYLQMNSLKPEDTAVYYCNRRPYGFEEFDYWGQGTQVTVSS”, the “polyreactivity (PSR sort gate)” value is listed as “low polyreactivity”.

On to “QVQLVESGGGLVQAGGSLRLRCAASGLIFGTYAMGWYRQAPGKERELVATISQIGGSTYYADSVKGRFTISRDNAKNTVYLEMNSLKPEETAVYYCAVDGGEFSSYGYWGQGTQVTVSS”, for which the “polyreactivity (PSR sort gate)” value is on record as “low polyreactivity”.

Regarding “QVQLVESGGGLVQAGGSLRLRCAASGLIFPVYAMGWYRQEPGKEREFVAAITYDGGNTYYADSVKGRFTISRDNAKNTVYLQMNSLKPEDTAVYYCNRRYPGPDSFEHYYYYRYDYWGQGTQVTVSS”, the “polyreactivity (PSR sort gate)” value was “low polyreactivity”.

As to “QVQLVESGGGLVQAGGSLRLRCAASGLTVRNYAMGWYRQAPRKERDLVAAISSGGGSTYYADSVKGRFTISRDNAKNTVYLQMNSLKPEDTAVYYCAAKRHTSLYVYYYWGQGTQVTVSS”, the “polyreactivity (PSR sort gate)” value is reported as “high polyreactivity”.

As to “QVQLVESGGGLVQAGGSLRLRCAASGNIFDRYAMGWYRQAPGKERELVAAISWSDGTTYYADSVKGRFTISRDNAKNTVYLQMNTLKPEDTAVYNCAGVYTYPLGYYHYTYDDWGQGTQVSVSS”, the “polyreactivity (PSR sort gate)” value was “low polyreactivity”.

As for “QVQLVESGGGLVQAGGSLRLRCAASGRIFDWYALGWNRQAPGQERELVAAITSGGSTYYADSVKGRFTISRDNAKNTVYLQMNSLKTEDTAVYYCAADLYYWGDSDYWGQGTQVTVSS”, the “polyreactivity (PSR sort gate)” value is “low polyreactivity”.

“QVQLVESGGGLVQAGGSLRLRCAASGRIFGRYAMGWYRQAPGKERELVASISRGGSTNYADSVKGRFTISLDNAKNTVYLQMNSLKPEDTAVFYFAKSGGVGGDDRVGSWGQGTQVTVSS”: the “polyreactivity (PSR sort gate)” value is “low polyreactivity”.

For the sequence “QVQLVESGGGLVQAGGSLRLRCAASGRIFSTYAMGWYRQAPGKERALVAAINKIGGSTYYADSVKGRFTISRDNAKNTVYLQMNSLKPEDTAVYYCAADAPFYPVRRYYYWGQGTQVTVSS”, the “polyreactivity (PSR sort gate)” value is “low polyreactivity”.

Consider “QVQLVESGGGLVQAGGSLRLRCAASGRIFTYYAMGWYRPAPGKERELVAAISWSGGSTYYADSVKGRFTISRDNAKNTVYLQMNSLKPEDTAVYYCNAVYPSVYPVSTRYYWGQGTQVTVSS”, for which the “polyreactivity (PSR sort gate)” value was “high polyreactivity”.

Take “QVQLVESGGGLVQAGGSLRLRCAASGRIFWSNAMGWYRQAPGKERELVAAISSGGSTNYADSEKGRFTISRDNAKNTVYLQMNSLKPEDTEVYYCATRGIQRGFSRWGGLDYWGQVTQVTVSS”: the “polyreactivity (PSR sort gate)” value is reported as “low polyreactivity”.
